B1: YukE-His6 (natural protein, B. subtilis, UniProt C0SP85 1-97, looked up)
chain: MAGLIRVTPEELRAMAKQYGVESQEVLNQVDRLNRMISDLKSMWEGASSEAFADQYEQLKPSFIKMSDLLQDVNQQLDQTANTLESTDQDIANQIRG
notes: YukE, WXG100 protein of Bacillus subtilis; YukE-His6 is 12.17 kDa; The vector may add linker residues between YukE and the His6 tag; The vector is named pIVEX3.2d once and pIVEX2.3d once; also called recombinant YukE; YukE C-terminally tagged with a hexahistidine tail; not shown: His6, C-terminal, kept
B2: native YukE (natural protein, UniProt C0SP85 1-97, looked up)
chain: B1 chain
notes: YukE, WXG100 protein of Bacillus subtilis, as secreted to the culture medium; predicted mass of the native dimer ~22 kDa; the protein here is from an ATCC 6051 derivative; also called YukE present in a concentrated culture supernatant of strain W654

Assays:
[1] = biological target: the molecule itself; assay: cross-linking; pure YukE-His6 (0.4 to 10.3 uM with 0.25 mM BS3; 20 to 84 uM with 1 mM BS3) in YukE buffer (50 mM HEPES-Na pH 7.0, 300 mM NaCl), 30 min at room temperature; 15% SDS-PAGE, Coomassie staining or Western blot with anti-YukE-His6
[2] = biological target: the molecule itself; assay: cross-linking; concentrated, dialysed (25 mM HEPES pH 7, 250 mM NaCl) cell-free supernatant of a W654 culture at T2, 2.5 ug total protein, 1 mM or 5 mM BS3, 30 min at room temperature; Western blot with anti-YukE-His6

Protein	stoichiometry N [1]	stoichiometry N [2]
B1	2	–
B2	–	2

Reference: article PMC3701619, “High Levels of DegU-P Activate an Esat-6-Like Secretion System in Bacillus subtilis” (PLoS ONE, 2013)
